Experimental data published in publication PMC5206748.

Columns and labels:
[1] = target: TSP7 S77R (scFv) (mouse); assay: SPR; scFv (100 nM) captured on anti-His6-tag antibody on a CM5 chip; analyte 1.25-20 nM strand-swap dimer or 6.25-100 nM monomer construct; global fitting
[2] = target: human P-cadherin expressed on CHO cells (human) (UniProt P22223)

Sequence of human P-cadherin expressed on CHO cells (P22223 108-829): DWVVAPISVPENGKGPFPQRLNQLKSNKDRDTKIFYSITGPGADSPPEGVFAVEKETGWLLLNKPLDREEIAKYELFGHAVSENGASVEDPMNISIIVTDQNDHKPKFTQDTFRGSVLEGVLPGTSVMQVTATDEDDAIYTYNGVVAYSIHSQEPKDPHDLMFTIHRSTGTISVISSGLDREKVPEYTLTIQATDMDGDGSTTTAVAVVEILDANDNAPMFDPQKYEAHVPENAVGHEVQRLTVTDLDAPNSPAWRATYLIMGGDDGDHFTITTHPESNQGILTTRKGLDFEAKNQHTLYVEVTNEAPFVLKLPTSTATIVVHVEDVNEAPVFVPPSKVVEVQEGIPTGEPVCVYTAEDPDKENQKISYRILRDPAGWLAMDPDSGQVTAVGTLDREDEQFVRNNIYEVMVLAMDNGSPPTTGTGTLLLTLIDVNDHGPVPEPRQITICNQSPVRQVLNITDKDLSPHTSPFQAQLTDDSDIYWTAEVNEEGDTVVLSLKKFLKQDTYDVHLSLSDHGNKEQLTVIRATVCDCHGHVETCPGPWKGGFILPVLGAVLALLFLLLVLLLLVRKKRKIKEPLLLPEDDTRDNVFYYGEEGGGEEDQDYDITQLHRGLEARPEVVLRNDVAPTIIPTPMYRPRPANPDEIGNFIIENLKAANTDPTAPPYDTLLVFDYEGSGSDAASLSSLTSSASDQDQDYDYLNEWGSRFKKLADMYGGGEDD
Sequence of TSP7 S77R (scFv) (mouse) (heavy, as listed by the source): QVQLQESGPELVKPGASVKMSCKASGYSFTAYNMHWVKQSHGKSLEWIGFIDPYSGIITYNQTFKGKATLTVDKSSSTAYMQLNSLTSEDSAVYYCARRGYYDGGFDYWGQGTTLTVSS

Substance: human P-cadherin EC12 K14E (domain or fragment)
- fold change of affinity against TSP7 WT [1]: 2 fold lower

Substance: human P-cadherin expressed on CHO cells (from UniProt P22223 108-829) (natural protein)
- loss of dense fluorescent puncta of P-cadherin WT-mGFP at cell-cell boundaries of CHO cells after 100 nM TSP7 (0-120 min) [2]: 90%
